# Results reported in patent publication US20180355338A1.
# How the values were obtained:
# [1] = biological target: TY-145 protease variant K146T, S173P, S175P, F180Y (Bacillus sp. TY-145); assay: Ki fitted from Suc-AAPF-pNA activity; Tris buffer pH 8; ratio against m3 (without K146T)
# [2] = biological target: TY-145 protease variant S173P, S175P, F180Y, L184D (Bacillus sp. TY-145); assay: Ki fitted from Suc-AAPF-pNA activity; Model B detergent; ratio against m3 (without L184D)
# [3] = biological target: TY-145 protease variant S27K, S173P, G174K, S175P, F180Y, L184F, Q198E, N199K, T297P (Bacillus sp. TY-145); assay: Ki fitted from Suc-AAPF-pNA activity; Model B detergent; ratio against m8 (without L184F)
# [4] = biological target: TY-145 protease variant S173P, S175P, F180Y, R224G (Bacillus sp. TY-145); assay: Ki fitted from Suc-AAPF-pNA activity; Model B detergent; ratio against m3 (without R224G)
# [5] = biological target: TY-145 protease variant K146A, S173P, S175P, F180Y (Bacillus sp. TY-145); assay: Ki fitted from Suc-AAPF-pNA activity; Model B detergent; ratio against m3 (without K146A)
# [6] = biological target: TY-145 protease variant S27K, S173P, G174K, S175P, F180Y, L184Y, Q198E, N199K, T297P (Bacillus sp. TY-145); assay: Ki fitted from Suc-AAPF-pNA activity; Model B detergent; ratio against m8 (without L184Y)
# [7] = biological target: TY-145 protease variant S173P, S175P, I178Y, F180Y (Bacillus sp. TY-145); assay: Ki fitted from Suc-AAPF-pNA activity; Model B detergent; ratio against m3 (without I178Y)
# [8] = biological target: TY-145 protease variant S27K, S171D, S173P, G174R, S175P, G182A, L184F, Q198E, N199K, R224G, T297P (Bacillus sp. TY-145); assay: Ki fitted from Suc-AAPF-pNA activity; Model B detergent; ratio against m12 (without R224G)
substance,measurement,setting,value
"Z-Gly-Ala-NHCH(CH2C6H4pOH)C(OH)(SO3Na)-H, wherein Z is benzyloxycarbonyl (peptide)",relative Ki mutation,[1],0.06
same,relative Ki mutation,[2],0.37
same,relative Ki mutation,[3],0.36
same,relative Ki mutation,[4],0.47
same,relative Ki mutation,[5],0.34
same,relative Ki mutation,[6],0.21
same,relative Ki mutation,[7],0.53
same,relative Ki mutation,[8],0.49
